Measured values: article PMC3223204, “Implantation Serine Proteinase 1 Exhibits Mixed Substrate Specificity that Silences Signaling via Proteinase-Activated Receptors” (PLoS ONE, 2011)
No end group written: not given here.

Target: T1, purified recombinant ISP1 (Mus musculus, UniProt Q924N9)
T1 construct: Myc (C); His6 (C); made in house; host or cells: Pichia pastoris SMD1168
T1 sequence (Q924N9 31-274 limits assumed): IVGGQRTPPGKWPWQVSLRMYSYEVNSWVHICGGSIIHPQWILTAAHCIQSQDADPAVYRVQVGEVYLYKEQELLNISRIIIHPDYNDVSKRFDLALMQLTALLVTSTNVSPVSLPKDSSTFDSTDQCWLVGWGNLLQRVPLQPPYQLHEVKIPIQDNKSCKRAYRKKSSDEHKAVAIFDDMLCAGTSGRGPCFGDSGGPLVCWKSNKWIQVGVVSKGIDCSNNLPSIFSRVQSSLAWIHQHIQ
Experiment: In vitro cleavage of synthetic peptides by ISP1 (HPLC, MALDI-TOF)
Assay type: biochemical
Settings: for Cleavage of synthetic peptide by ISP1: 37°C, up to overnight, HPLC; for ISP1 cleavage site in synthetic peptide: MALDI-TOF / amino acid analysis / ES-MS
Method: Synthetic peptides (1 mg/ml) diluted in 25 mM Tris.Cl (pH 7.8) were incubated with 2.0 units of purified recombinant ISP1 (total volume of reaction mixture: 0.5 ml) at 37°C overnight. The reaction was terminated by the addition of 0.1% trifluoroacetic acid and the mixture was separated using HPLC with an acetonitrile gradient in 0.1% v/v trifluoroacetic acid. The positions of the hydrolysis products monitored by ultraviolet absorption (E215) were compared to the elution position of the intact peptide. The masses of the individual peaks (E215) were determined by MALDI-TOF mass spectroscopy and were used to deduce the predicted amino acid sequences, based on the parent peptide sequence (amino acids are abbreviated by their one-letter codes, e.g., A = alanine, R = arginine). Except where indicated, all chemical reagents were from VWR International (Mississauga, ON, Canada).
The rat PAR2 sequence representing the cleavage/activation domain (^30 GPNSKGR/ SLIGRLDT ^45P: tethered ligand sequence, underlined), the 27-mer synthetic sequence derived from the N-terminal residues […] of rat PAR2 (I^48 […] ^74) and a 17-mer synthetic peptide sequence derived from extracellular loop 2 of rat PAR2 (V^229 LPEEVLVGDMFSYFLS ^245) were selected for the proteolysis studies. […] The 17-mer ^229–245PAR2 sequence is the potential binding site of the activating peptide. […] These peptides at a concentration of 100 µM were incubated with implantation serine proteinase 1 for varying times up to overnight at 37°C. The incubation buffers were identical to the buffers used for the measurements of enzymatic activities using AMC-substituted peptide substrates. Reactions were terminated either by rapid freezing in liquid nitrogen or by the addition to the proteolysis sample of 2 volumes of a “stop solution” comprising 50% acetonitrile and 0.1% trifluoroacetic acid in water. Samples were either subjected immediately to HPLC analysis, with collection of the E215 peak fractions, or were stored at −80°C for further processing. The cleavage products in peaks of absorption resolved by HPLC were quantified (E215), collected and their identity was established by mass spectral MALDI analysis. Some of the peaks recovered from the HPLC columns, but not ascertained by mass spectral analysis (MALDI-TOF), were identified by total amino acid analysis. Analyses were done at the Southern Alberta Mass Spectrometry Facility at the University of Calgary, Faculty of Medicine (Calgary, Alberta, Canada).

Row | Substance | Cleavage of synthetic peptide by ISP1 | ISP1 cleavage site in synthetic peptide
1 | ITGKGAPVEPGFSVDEFSASVLTGKLT-NH2 [27 mer peptide] | successfully cleaved | between an alanine (P1 sub site) residue and a serine (P1′ sub site) residue
2 | RRFYIQ-NH2 | cleaved by ISP1 | –
3 | VLPEEVLVGDMFSYFLS [17-mer synthetic peptide, derived from the extracellular loop 2 domain of rat PAR2] | successfully cleaved | between a tyrosine (P1 sub site) residue and a phenylalanine (P1′ sub site) residue; a phenylalanine (P1 sub site) and a leucine (P1′ sub site) residue; a leucine (P1 sub site) and a serine (P1′ sub site) residue
4 | cleavage/activation sequence of PAR2: sequence representing the cleavage/activation site of rat PAR2 (30 GPNSKGR/ SLIGRLDT 45P) (GPNSKGRSLIGRLDTP; UniProt Q63645 30-45, looked up, fragment) | not cleaved | –
